Results: patent publication US20240327530A1 (ICHNOS SCIENCES, published 2024)

How the values were obtained:
[1] = biological target: T1, Recombinant cynomolgus monkey IL-1RAP-ECD(S21-E359)-avi-his protein (cynomolgus monkey, UniProt P59822 21-359 (rhesus entry)); experiment: SPR, biotinylated cyno IL-1RAP-avi-his captured, Fab as analyte, 1:1 fit
T1 construct: also called cyno IL-1RAP-ECD-Avi-His; recombinant cynomolgus monkey IL-1RAP-avi-his protein
T1 sequence: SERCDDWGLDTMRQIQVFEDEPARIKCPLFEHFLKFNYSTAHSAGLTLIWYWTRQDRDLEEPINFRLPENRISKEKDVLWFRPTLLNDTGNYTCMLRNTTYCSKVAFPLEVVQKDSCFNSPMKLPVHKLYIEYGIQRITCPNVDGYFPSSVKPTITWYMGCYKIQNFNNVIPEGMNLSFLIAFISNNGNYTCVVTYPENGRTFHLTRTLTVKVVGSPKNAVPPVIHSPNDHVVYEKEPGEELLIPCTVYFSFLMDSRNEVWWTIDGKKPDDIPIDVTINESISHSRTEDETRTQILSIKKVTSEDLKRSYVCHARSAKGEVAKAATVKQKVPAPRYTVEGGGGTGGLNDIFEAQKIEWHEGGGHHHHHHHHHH
Description: (§1) Surface plasmon resonance (SPR) was used to measure the binding affinities of the Fab fragments for human, cynomolgus monkey and/or mouse IL-1RAP. Affinities were measured on a BIACORE™ T200 instrument (BIACORE™, GE […]®) at 25° C. and analyzed with the BIACORE™ T200 Evaluation Software (v3.1). Measurements were performed on Series S CM5 sensor chips (BIACORE™ T200, BIACORE™, GE […]®, catalog no. BR100530) coupled with anti-human IgG Fc (BIACORE™, GE […]®, catalog no. BR100839) using a commercial amine coupling kit (BIACORE™, GE […]®, catalog no. BR100050) or on Series S BiotinCAPture chips (BIACORE™, GE […]®, catalog no. 28920234). SPR measurements were performed with commercially available recombinant human IL-1RAP Fc fusion protein (Acrobiosystems, catalog no. ILP-H5256) and recombinant mouse IL-1RAP Fc fusion protein (Sino Biologicals, catalog no. 52657-M02H) or with biotinylated recombinant cynomolgus monkey IL-1RAP-avi-his protein produced in-house (SEQ ID NO. 2).
(§2) The affinities to human, cynomolgus monkey and mouse IL-1RAP were assessed by immobilizing IL-1RAP and using Fab fragments as analyte. Around 100 RU of human or mouse IL-1RAP Fc fusion protein were captured on fc2 of a Series S CM5 sensor chip coupled with anti-human IgG Fc and around 150 RU of biotinylated cynomolgus monkey IL-1RAP protein were captured on fc2 of a Series S BiotinCAPture chip. Fab fragments were injected in single cycle kinetic at different concentrations ranging from 7.8 to 500 nM, in HBS-EP+ buffer (BIACORE™, GE […]®, catalog no. BR100669) at a flow rate of 30 μl/min for 3 min on fc1 and fc2 (fc1 being used as reference). Dissociation was monitored for 5 min. After each cycle, the surface was regenerated with 60 μl of regeneration solution provided with anti-human IgG Fc capture kit (BIACORE™, GE […]®, catalog no. BR100839) or BiotinCAPture kit (BIACORE™, GE […]®, catalog no. 28920234) respectively. Experimental data were processed using the 1:1 Langmuir kinetic fitting model. Measurements included zero-concentration samples for referencing. Chi², U- and residual values were used to evaluate the quality of a fit between the experimental data and individual binding models.

[2] = biological target: T2, Recombinant mouse IL-1RAP Fc fusion protein (Sino Biologicals, catalog no. 52657-M02H) (mouse, UniProt Q61730 21-350); experiment: SPR, mouse IL-1RAP-Fc captured, Fab as analyte
T2 construct: Bought; not shown: Fc part of the bought fusion protein
T2 sequence: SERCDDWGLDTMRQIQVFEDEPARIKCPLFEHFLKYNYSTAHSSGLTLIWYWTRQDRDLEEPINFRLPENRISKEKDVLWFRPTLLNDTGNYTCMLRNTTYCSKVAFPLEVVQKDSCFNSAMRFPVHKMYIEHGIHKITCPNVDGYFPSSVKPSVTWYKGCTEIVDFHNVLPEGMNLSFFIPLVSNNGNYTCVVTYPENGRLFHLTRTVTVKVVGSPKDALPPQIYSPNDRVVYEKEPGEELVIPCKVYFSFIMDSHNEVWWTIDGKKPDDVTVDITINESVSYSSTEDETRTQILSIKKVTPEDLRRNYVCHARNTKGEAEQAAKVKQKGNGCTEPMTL
Description: as §1, §2

[3] = biological target: T3, Recombinant human IL-1RAP Fc fusion protein (Acrobiosystems, catalog no. ILP-H5256) (human, UniProt Q9NPH3 21-359, limits assumed); experiment: SPR, human IL-1RAP-Fc captured, Fab as analyte, 1:1 fit
T3 construct: Bought; not shown: Fc part of the bought fusion protein
T3 sequence: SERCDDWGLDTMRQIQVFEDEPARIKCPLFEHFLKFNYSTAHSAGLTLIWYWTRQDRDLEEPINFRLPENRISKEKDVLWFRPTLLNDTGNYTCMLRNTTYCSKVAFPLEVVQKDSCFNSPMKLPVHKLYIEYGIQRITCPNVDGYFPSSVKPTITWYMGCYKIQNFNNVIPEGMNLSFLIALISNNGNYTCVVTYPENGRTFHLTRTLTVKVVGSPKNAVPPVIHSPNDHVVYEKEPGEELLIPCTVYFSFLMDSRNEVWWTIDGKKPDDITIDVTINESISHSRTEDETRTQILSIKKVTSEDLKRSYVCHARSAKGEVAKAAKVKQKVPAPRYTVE
Description: as §1, §2

B1: Anti-IL-1RAP-UCP02-A4-Fab (Fab, V domains shown)
VH: QVQLVQSGAEVKKPGSSVKVSCKASGGVFSYYAISWVRQAPGQGLEWMGAIIPDFGHTIYAQKFQGRVTITADESTSTAYMELSSLRSEDTAVYYCARASPYKGWWDYWGQGTLVTVSS
VL: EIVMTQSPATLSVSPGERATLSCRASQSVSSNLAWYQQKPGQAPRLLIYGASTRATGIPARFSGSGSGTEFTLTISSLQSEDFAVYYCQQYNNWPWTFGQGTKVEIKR
B1 was tested, and the Kd [1] was 103 nM, the binding result [2] was “no binding (tested: 7.8 to 500 nM Fab)” and the Kd [3] was 84.3 nM.

B2: Anti-IL-1RAP-UCP02-C5-Fab (Fab, V domains shown)
VH: QVQLVQSGAEVKKPGSSVKVSCKASGGHFNIYAISWVRQAPGQGLEWMGYIIPSLGAVDYAQKFQGRVTITADESTSTAYMELSSLRSEDTAVYYCARASIYHGWMAYWGQGTLVTVSS
VL: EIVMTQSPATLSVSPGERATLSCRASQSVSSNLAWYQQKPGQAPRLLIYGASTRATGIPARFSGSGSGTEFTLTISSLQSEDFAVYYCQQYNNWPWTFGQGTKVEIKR
B2 was tested, and the Kd [1] was 334 nM, the binding result [2] was “no binding (tested: 7.8 to 500 nM Fab)” and the Kd [3] was 368 nM.

B3: Anti-IL-1RAP-UCP02-C8-Fab (Fab, V domains shown)
VH: QVQLVQSGAEVKKPGSSVKVSCKASGGQFSEYAIQWVRQAPGQGLEWMGYIIPLHGQVDYAQKFQGRVTITADESTSTAYMELSSLRSEDTAVYYCARGQTLYDSGRQFDIWGQGTLVTVSS
VL: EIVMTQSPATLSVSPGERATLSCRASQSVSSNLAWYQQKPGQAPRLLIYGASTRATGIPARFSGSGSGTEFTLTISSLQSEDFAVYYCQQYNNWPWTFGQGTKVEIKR
notes: also called anti-IL-1RAP-C8; anti-IL-1RAP-C8 Fab
B3 was tested, and the Kd [1] was 2.2 nM, the binding result [2] was “no binding (tested: 7.8 to 500 nM Fab)” and the Kd [3] was 2.2 nM.

B4: Anti-IL-1RAP-UCP02-H8-Fab (Fab, V domains shown)
VH: QVQLVQSGAEVKKPGSSVKVSCKASGGVFSGYAISWVRQAPGQGLEWMGGIIPEFGATNYAQKFQGRVTITADESTSTAYMELSSLRSEDTAVYYCARHSSAYSPWFDYWGQGTLVTVSS
VL: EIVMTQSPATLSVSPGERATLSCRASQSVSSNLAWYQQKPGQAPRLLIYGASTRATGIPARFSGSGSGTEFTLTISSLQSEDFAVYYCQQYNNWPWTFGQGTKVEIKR
In the case of B4, the Kd [1] is reported as 297 nM, the binding result [2] is reported as “no binding (tested: 7.8 to 500 nM Fab)” and the Kd [3] is reported as 328 nM.

B5: Anti-IL-1RAP-UCP02-C9-Fab (Fab, V domains shown)
VH: QVQLVQSGAEVKKPGSSVKVSCKASGGVFSYYAFHWVRQAPGQGLEWMGGIIPGYGATFYAQKFQGRVTITADESTSTAYMELSSLRSEDTAVYYCARPVSYSSGWYDYWGQGTLVTVSS
VL: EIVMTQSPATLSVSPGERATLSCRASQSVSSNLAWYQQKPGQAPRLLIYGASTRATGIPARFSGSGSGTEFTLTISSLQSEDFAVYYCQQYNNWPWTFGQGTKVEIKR
With B5 the Kd [1] was 27.8 nM, the binding result [2] was “no binding (tested: 7.8 to 500 nM Fab)” and the Kd [3] was 35.6 nM.

B6: Anti-IL-1RAP-UCP02-H9-Fab (Fab, V domains shown)
VH: QVQLVQSGAEVKKPGSSVKVSCKASGGPFSSYALSWVRQAPGQGLEWMGGIIPHHGATYYAQKFQGRVTITADESTSTAYMELSSLRSEDTAVYYCARHPDVYTPWFDVWGQGTLVTVSS
VL: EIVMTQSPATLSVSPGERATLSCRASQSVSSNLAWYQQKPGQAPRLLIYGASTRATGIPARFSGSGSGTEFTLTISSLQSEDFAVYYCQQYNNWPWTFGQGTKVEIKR
B6 was tested, and the Kd [1] was 682 nM, the binding result [2] was “no binding (tested: 7.8 to 500 nM Fab)” and the Kd [3] was 907 nM.

B7: Anti-IL-1RAP-UCP02-D2-Fab (Fab, V domains shown)
VH: QVQLVQSGAEVKKPGSSVKVSCKASGGRFSDSAIHWVRQAPGQGLEWMGYILPQFGAPLYAQKFQGRVTITADESTSTAYMELSSLRSEDTAVYYCARGSYYGVVGYVPDDYWGQGTLVTVSS
VL: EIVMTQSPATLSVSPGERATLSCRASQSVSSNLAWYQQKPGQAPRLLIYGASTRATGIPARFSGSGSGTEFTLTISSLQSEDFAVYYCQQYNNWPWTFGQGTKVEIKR
B7 was tested, and the Kd [1] was 50.9 nM, the binding result [2] was “no binding (tested: 7.8 to 500 nM Fab)” and the Kd [3] was 49 nM.

B8: Anti-IL-1RAP-UCP02-G11-Fab (Fab, V domains shown)
VH: QVQLVQSGAEVKKPGSSVKVSCKASGGQFNDYAIHWVRQAPGQGLEWMGYIIPAYGQAEYAQKFQGRVTITADESTSTAYMELSSLRSEDTAVYYCARVPYSTAYFDYWGQGTLVTVSS
VL: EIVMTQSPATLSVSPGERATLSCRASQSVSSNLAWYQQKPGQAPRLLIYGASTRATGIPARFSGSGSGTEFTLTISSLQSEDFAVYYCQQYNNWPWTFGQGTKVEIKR
In the case of B8, the Kd [1] is reported as 345 nM, the binding result [2] is reported as “no binding (tested: 7.8 to 500 nM Fab)” and the Kd [3] is reported as 260 nM.

B9: Anti-IL-1RAP-UCP02-G3-Fab (Fab, V domains shown)
VH: QVQLVQSGAEVKKPGSSVKVSCKASGGYLNEYAIHWVRQAPGQGLEWMGAVIPRYGQTYYAQKFQGRVTITADESTSTAYMELSSLRSEDTAVYYCARPLGYSYGWFDYWGQGTLVTVSS
VL: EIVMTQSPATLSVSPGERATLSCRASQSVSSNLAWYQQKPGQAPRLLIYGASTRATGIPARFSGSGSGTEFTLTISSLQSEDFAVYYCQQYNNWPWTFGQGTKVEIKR
For B9, the Kd [1] was 296 nM, the binding result [2] was “no binding (tested: 7.8 to 500 nM Fab)” and the Kd [3] was 230 nM.

B10: Anti-IL-1RAP-UCP02-G8-Fab (Fab, V domains shown)
VH: QVQLVQSGAEVKKPGSSVKVSCKASGGFFSIYAISWVRQAPGQGLEWMGGIAPAAGIAEYAQKFQGRVTITADESTSTAYMELSSLRSEDTAVYYCARGQSPGRVREEYWYDYWGQGTLVTVSS
VL: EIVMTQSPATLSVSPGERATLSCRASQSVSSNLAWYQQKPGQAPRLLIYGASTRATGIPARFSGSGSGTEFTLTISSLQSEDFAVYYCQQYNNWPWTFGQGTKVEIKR
For B10, the Kd [1] was 116 nM, the binding result [2] was “no binding (tested: 7.8 to 500 nM Fab)” and the Kd [3] was 73.5 nM.

B11: Anti-IL-1RAP-UCP03-A2-Fab (Fab, V domains shown)
VH: QVQLVQSGAEVKKPGSSVKVSCKASGGKFNFDVIHWVRQAPGQGLEWMGGIIPDFASTHYAQKFQGRVTITADESTSTAYMELSSLRSEDTAVYYCARVPDYYTGWMAYWGQGTLVTVSS
VL: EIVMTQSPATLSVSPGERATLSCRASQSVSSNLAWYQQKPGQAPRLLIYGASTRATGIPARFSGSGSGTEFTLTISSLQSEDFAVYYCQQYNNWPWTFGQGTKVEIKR
For B11, the Kd [1] was 589 nM, the binding result [2] was “no binding (tested: 7.8 to 500 nM Fab)” and the Kd [3] was 582 nM.

B12: Anti-IL-1RAP-UCP02-A6-Fab (Fab, V domains shown)
VH: QVQLVQSGAEVKKPGSSVKVSCKASGGAFRIYAIHWVRQAPGQGLEWMGGILASGGGAVYAQKFQGRVTITADESTSTAYMELSSLRSEDTAVYYCARAKDIYGYGYGDIWGQGTLVTVSS
VL: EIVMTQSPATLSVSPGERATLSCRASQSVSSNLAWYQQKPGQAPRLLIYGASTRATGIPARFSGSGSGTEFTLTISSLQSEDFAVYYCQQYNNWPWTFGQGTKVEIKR
With B12 the Kd [1] was 197 nM, the binding result [2] was “no binding (tested: 7.8 to 500 nM Fab)” and the Kd [3] was 223 nM.

B13: Anti-IL-1RAP-UCP03-A3-Fab (Fab, V domains shown)
VH: QVQLVQSGAEVKKPGSSVKVSCKASGGLFNENAIHWVRQAPGQGLEWMGGIIPDVGAAFYAQKFQGRVTITADESTSTAYMELSSLRSEDTAVYYCARGSIYTAWFAVWGQGTLVTVSS
VL: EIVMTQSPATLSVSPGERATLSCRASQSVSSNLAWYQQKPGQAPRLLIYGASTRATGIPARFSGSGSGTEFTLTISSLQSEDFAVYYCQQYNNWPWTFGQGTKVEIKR
With B13 the Kd [1] was 177 nM, the binding result [2] was “no binding (tested: 7.8 to 500 nM Fab)” and the Kd [3] was 137 nM.

B14: Anti-IL-1RAP-UCP03-C1-Fab (Fab, V domains shown)
VH: QVQLVQSGAEVKKPGSSVKVSCKASGGRFSSNAISWVRQAPGQGLEWMGGIIPHFGAVYYAQKFQGRVTITADESTSTAYMELSSLRSEDTAVYYCARGSVYTGWFDNWGQGTLVTVSS
VL: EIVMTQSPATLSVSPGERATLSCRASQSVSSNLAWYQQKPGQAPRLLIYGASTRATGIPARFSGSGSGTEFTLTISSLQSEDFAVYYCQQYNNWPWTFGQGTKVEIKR
In the case of B14, the Kd [1] is reported as 761 nM, the binding result [2] is reported as “no binding (tested: 7.8 to 500 nM Fab)” and the Kd [3] is reported as 573 nM.

B15: Anti-IL-1RAP-UCP03-B4-Fab (Fab, V domains shown)
VH: QVQLVQSGAEVKKPGSSVKVSCKASGGPFSQHAISWVRQAPGQGLEWMGGIIPFEGVAFYAQKFQGRVTITADESTSTAYMELSSLRSEDTAVYYCARSSSYYSWLDYWGQGTLVTVSS
VL: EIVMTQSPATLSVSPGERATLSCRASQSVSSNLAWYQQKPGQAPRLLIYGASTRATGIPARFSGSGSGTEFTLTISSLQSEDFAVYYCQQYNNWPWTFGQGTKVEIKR
B15 was tested, and the Kd [1] was 220 nM, the binding result [2] was “no binding (tested: 7.8 to 500 nM Fab)” and the Kd [3] was 221 nM.

B16: Anti-IL-1RAP-UCP03-B6-Fab (Fab, V domains shown)
VH: QVQLVQSGAEVKKPGSSVKVSCKASGDPFSVYIIHWVRQAPGQGLEWMGYIIAQQGSASYAQKFQGRVTITADESTSTAYMELSSLRSEDTAVYYCARVPDPYSGHFDYWGQGTLVTVSS
VL: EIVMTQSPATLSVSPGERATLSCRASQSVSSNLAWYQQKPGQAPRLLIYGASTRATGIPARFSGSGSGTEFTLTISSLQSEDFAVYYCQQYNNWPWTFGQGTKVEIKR
For B16, the Kd [1] was 756 nM, the binding result [2] was “no binding (tested: 7.8 to 500 nM Fab)” and the Kd [3] was 545 nM.

B17: Anti-IL-1RAP-UCP03-F4-Fab (Fab, V domains shown)
VH: QVQLVQSGAEVKKPGSSVKVSCKASGGGFSEYAIHWVRQAPGQGLEWMGAILPEQGAAYYAQKFQGRVTITADESTSTAYMELSSLRSEDTAVYYCARVGLYVPYMDIWGQGTLVTVSS
VL: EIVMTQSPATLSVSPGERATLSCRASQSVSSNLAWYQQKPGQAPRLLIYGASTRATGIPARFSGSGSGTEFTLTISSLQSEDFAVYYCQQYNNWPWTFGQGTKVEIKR
With B17 the binding result [2] was “no binding (tested: 7.8 to 500 nM Fab)” and the Kd [3] was 888 nM.
